We go through two molecules from patent publication US20050260219A1, “Carboxypeptidases B from anopheles gambiae. compositions comprising them, vaccine applications and use as therapeutical targets” (INSTITUT PASTEUR, priority 2004, published 2005).

Values joined by “and” are separate entries in the source; they are usually repeats but may differ in a detail not shown here. Equal entries are not always repeated. Marks after values point to notes of the source that are not given here.

Substrate in data set [1]: N=C(N)NCCC[C@H](NC(=O)CNC(=O)c1ccccc1)C(=O)O
As to the kind of experiment: Carboxypeptidase activity assay on recombinant CPBAg1 with di-peptide substrates. Type of data set: biochemical, Anopheles gambiae. As to conditions: other: hydrolysis of Hip-Arg, Michaelis-Menten, 0.02-10 mM substrate; pH 7.2; 25.0 °C. On the procedure: Carboxypeptidase activity was determined using the synthetic di-peptide substrates Hippuryl-Arginine (Hip-Arg), Hippuryl-Lysine (Hip-Lys) as carboxypeptidase B substrates and Hippuryl-Phenylalanine (Hip-Phe) as carboxypeptidase A substrate. All reagents were purchased from Sigma. Activities were assayed in 20 μl E buffer (100 mM NaCl/50 mM Hepes/100 μM ZnCl2 pH 7.2) containing 1 mM Hip-Arg, Hip-Lys or Hip-Phe. The reaction was initiated by adding an equal volume of His-tagged CPBAg1 (5 ng/μl in E buffer), incubated at 25° C. for 10-40 min, and stopped by the addition of 20 μl Ninhydrin reagent (Sigma, Lyon, France). The rate of the reaction was measured by estimating the amount of released amino acids using the ninhydrin procedure (60). One unit of enzyme activity was defined as μmol of amino acids released/min.
Estimation of Km and kcat was carried out after assays over a 500-fold range of Hip-Arg concentration (0.02-10 mM). Each concentration was assayed in triplicate. The kinetic parameters were derived from iterative non-linear least square fits of the Michaelis-Menten equation using the experimental data (61). Confidence limits for the fitted values were determined by 100 Monte Carlo iterations using the experimental standard deviations on individual measurements. […]

For a further data set, the system named is P. berghei. Briefly: Transmission-blocking assays: An. gambiae fed on CPBAg1 immunized, P. berghei infected mice. Type of data set: in vivo, Plasmodium berghei. As to conditions: for Mean no. of oocysts (range): per positive midgut, day 9-11; for % of reduction R: infected mosquitoes fed on immunized versus control mice. On the procedure: Immunizations were performed with a recombinant CPBAg1 protein expressed in insect cells using the baculovirus expression system. Eleven 3- to 4-week-old female Swiss outbred mice (CERJ, Le Genest St-Isle, France) were injected subcutaneously with 20 μg of recombinant CPBAg1 in sterile PBS, emulsified with complete Freund's adjuvant (Sigma). Eleven control mice were injected simultaneously with sterile PBS/adjuvant following the same protocol. On day 21 post-immunization, eight immunized mice and eight control mice (group 1) were challenged with P. berghei for transmission blocking assays (see below). The three other immunized mice were boosted with 10 μg of recombinant CPBAg1 formulated in incomplete Freund's adjuvant (Sigma) and the three other control mice were injected simultaneously with sterile PBS/incomplete adjuvant. These six mice, which constituted group 2, were challenged with P. berghei 21 days after the booster immunization. Sera from immunized and control mice of both groups were prepared from 100 μl blood samples collected the same day as mosquito feeding (24 days after the first and booster immunizations).
On day 21 after the first and booster immunizations, mice were peritoneally inoculated with the P. berghei ANKA strain 2.34. On day 3 after P. berghei inoculation, parasitemia and gametocytemia were determined using Giemsa stained thin blood smears, and the mice were used for mosquito feeding. In group 1, parasitemia and gametocytemia ranged from 3.2% to 6.2% and from 6,500 to 11,500 gametocytes/μl for control mice, whereas they ranged from 3% to 7.4% and from 7,500 to 13,500 gametocytes/μl for immunized mice. In group 2, they ranged from 2% to 2.9% and from 2,000 to 4,000 gametocytes/μl for control mice, whereas they ranged from 1.5% to 3.6% and from 1,000 to 2,000 gametocytes/μl for immunized mice. Each mouse was placed onto a netted cage containing 50 starved 5-day-old An. gambiae females and feeding was carried out for 15 minutes at 21° C. After mosquito feeding, mice were bled to collect sera for ELISAs experiments and fully engorged mosquito females were maintained at 21° C., 80% humidity, until dissections. Rate of infection (number of infected mosquitoes/number of dissected mosquitoes) and intensity of infection (mean number of oocysts per positive midgut) were scored on day 9-11 after blood feeding by detection of oocysts on the mosquito midgut wall.
For the data reported in Table 7 below, An. gambiae were fed on control or immunized mice from group 1 (after primary immunization) and group 2 (after booster immunization). Proportion of infected mosquitoes (rate of infection) and mean number of oocysts per positive midgut (intensity of infection) were determined on day 9-11 post feeding. R: % reduction was calculated as R %=100×[1−(% infected mosquitoes fed on immunized mice/% infected mosquitoes fed on control mice)], using the mean value from each experimental group.

Another data set relates to CPBAg1. As to the kind of experiment: CPBAg1 specific ELISA titers in sera from immunized mice. Type of data set: in vivo. As to conditions: Swiss mice. The procedure:
Specific antibody titers against CPBAg1 were measured in duplicates for each mice by ELISA three weeks after the first (group 1) and the booster (group 2) immunization. The average reading at O.D. 490 nm of each group was plotted against the reciprocal sera dilution. End points were defined as the highest serial dilutions yielding an absorbance reading at 490 nm greater than 0.5. (Δ) and (□) show antibody titers from group 1 and 2 respectively in sera from immunized mice. (▴) and (▪) show antibody titers from group 1 and 2 respectively in sera from control mice.
Immunizations were performed with a recombinant CPBAg1 protein expressed in insect cells using the baculovirus expression system. Eleven 3- to 4-week-old female Swiss outbred mice (CERJ, Le Genest St-Isle, France) were injected subcutaneously with 20 μg of recombinant CPBAg1 in sterile PBS, emulsified with complete Freund's adjuvant (Sigma). […]
Microtiter plates (Immuno-plate Maxisorp, Nunc) were coated with 50 ng/well of CPBAg1 in PBS, overnight at 4° C., and saturated with 100 μl/well 0.5% gelatine (Sigma) in PBS for 1 h. […] After 10 min. incubation, the reaction was stopped with 50 μl 3N HCl and absorbance was measured at 490 nm using a microplate reader (Molecular Devices). Serum dilutions at an absorbance value of 0.5 were designated as the endpoint of ELISA titers.

Data set [2] has as its system P. berghei PbGFPCON ANKA strain. As to the kind of experiment: Effect of CPBAg1 immunized mice sera on parasite development (GFP-expressing P. berghei). Type of data set: in vivo, Plasmodium berghei. On the procedure:
Intensity of infection (number of parasites per positive midgut) by P. berghei was scored by detection of GFP-expressing parasites in midguts of mosquitoes fed on control (black bars) and immunized mice (grey bars). Gametocytemia was determined just before feeding by Giemsa staining of thin smears and by GFP fluorescence detection. Mosquitoes were dissected at 3 h, 24 h, 48 h and 9 days after blood feeding to visualize zygotes (Zyg), ookinetes (Ook), young oocysts (Ooc 48 h) and mature oocysts (Ooc day 9), respectively. Geometric mean intensity for six immunized mice was plotted as % of that for six control mice set at 100%. The table indicates the geometric mean number of parasite per midgut at each parasite life stages.
To assess the effect of anti-CPBAg1 sera on parasite development, a new group of six mice was immunized as described above and six control mice were injected with PBS/adjuvant. […] On day 3 after P. berghei inoculation, gametocytemia were determined by Giemsa staining of thin blood smears and by GFP fluorescence detection. […] Intensity of infection was scored by counting the number of zygotes and ookinetes within the mosquito midgut content, and the number of oocysts on the midgut wall. GFP fluorescence was visualized using GFP filter settings with a Zeiss Axiovert 25 fluorescence microscope.

B1: recombinant CPBAg1 (Anopheles gambiae) (protein)
chain: GSYHEFELYNVRPETAEQLSVLLKWRNGQEIEVDFWDAPKVGRSARLMVTREDHKRVEEFLEQHDIEYDLVAEDVQELLNREQRRNVEHGRRLRRDSNSRATVNFEHFWTLDEIYEYLDELAVAYNGLVRVSEIGRTHEDRPIKAITISTRGAVDQTRPIVFMDGGIHAREWAGVMSVMYMIHEFVEHSDQYAEQLSNTDYVIVPVANPDGYVYTHEQNRLWRKNRSPGNVLCYGVDLNRNFPFQWDRTTSECTNNFAGHAASSENETKALIGLMDQYKAAIRMYLAVHTYGEMILWPWGYDFLHAPNEDDLQRLGERARDALVAAGGPEYEVGNSADILYTASGATDDYAYSLGVPYSYTLELTGGGSQGFDLPAAELARVTSQTFELLKVFGQHAGTLSVTS
The term Km denotes the substrate concentration at which the rate is half of its maximum. For the molecule B1, the Km in data set [1] is 2590 µM.

B2: CPBAg1: recombinant His-tagged An. gambiae carboxypeptidase B (SEQ ID NO: 2) from baculovirus/insect cells, used to immunize mice (protein, listed as Anopheles gambiae)
chain: MKRLTFVTGCLLALAFAKAGSYHEFELYNVRPETAEQLSVLLKWRNGQEIEVDFWDAPKVGRSARLMVTREDHKRVEEFLEQHDIEYDLVAEDVQELLNREQRRNVEHGRRLRRDSNSRATVNFEHFWTLDEIYEYLDELAVAYNGLVRVSEIGRTHEDRPIKAITISTRGAVDQTRPIVFMDGGIHAREWAGVMSVMYMIHEFVEHSDQYAEQLSNTDYVIVPVANPDGYVYTHEQNRLWRKNRSPGNVLCYGVDLNRNFPFQWDRTTSECTNNFAGHAASSENETKALIGLMDQYKAAIRMYLAVHTYGEMILWPWGYDFLHAPNEDDLQRLGERARDALVAAGGPEYEVGNSADILYTASGATDDYAYSLGVPYSYTLELTGGGSQGFDLPAAELARVTSQTFELLKVFGQHAGTLSVTS
modifications: His tag
Consider B2, for which the “Rate of infection % (number of dissected mosquitoes)” value in the data set with P. berghei (Group 1 (primary immunization), individual immunized mice Im 1-Im 8, day 9-11 post feeding) is 9.4 (32)* % and 0 (20)* % and 43.3 (30)* % and 31.2 (32)* % and 41.2 (17)* % and 38.8 (18)* % and 50 (30)* % and 10.5 (38)* %; with P. berghei (Group 2 (booster immunization), individual immunized mice Im 9-Im 11, day 9-11 post feeding), 77.4 (31)* % and 26.6 (30)* % and 36.6 (30)* %; in the data set on P. berghei (Mean Group 1, immunized mice), 28.1 (217)* %; in the data set on P. berghei (Mean Group 2, immunized mice), 47.2 (91)* %. In addition, the “Mean no. of oocysts (range)” value with P. berghei (Group 1, individual immunized mice Im 1-Im 8) is 2.5 (1-5)* and 0* and 7.16 (1-56) and 3.7 (1-70) and 5.4 (1-27) and 5.8 (1-32) and 6.7 (1-117) and 3.3 (1-15); in the data set with P. berghei (Group 2, individual immunized mice Im 9-Im 11), 23.7 (1-120) and 6.2 (3-10)* and 24.3 (6-100). For the same molecule, the “% of reduction R” value was 63% and 63.2% in the data set with P. berghei (Group 1); 51% and 50.6% in the data set with P. berghei (Group 2). For the same molecule, the “Mean no. of oocysts” value in the data set with P. berghei (Mean Group 1, immunized mice) is 5.3; in the data set on P. berghei (Mean Group 2, immunized mice), 18.6*. For the same molecule, the “endpoint titer of specific anti-CPBAg1 antibodies” value was ~12,150 in the data set on CPBAg1 (group 1: single injection of 20 μg in complete Freund's adjuvant, 24 days after immunization) and ~36,450 in the data set on CPBAg1 (group 2: second injection on day 21). In addition, the “reduction of mean infection intensity versus mosquitoes fed on control mice” value in data set [2] (3 h PBM (zygotes)) was 40%; in data set [2] (day 9 PBM (mature oocysts)), 65%.
